Experimental data published in the nanobody polyreactivity screen of Harvey et al. (2022).

Assay: yeast display, Sf9 membrane polyspecificity reagent, FACS + sequencing; frameworks hold sequencing errors
Outline: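 Polyreactivity labels are assigned by the sorting gate from which each nanobody was recovered. The gates were low and high (top ~1%), set on anti-HA fluorescence for expression and streptavidin fluorescence for reagent binding. Before sorting, galactose-induced (36–48 hours) yeast display cells were stained for 1 hour at 4 °C with 10% biotinylated, detergent-solubilized Sf9 membrane reagent.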

Sequence | polyreactivity (PSR sort gate)
QVQLVDSGGGLVKAGCSLRLSCAASGRIFNSYAMGLYRQAPGKETELVAAITWSGDRTNYADSVKGRFTISRDNANNTVYVQMNSLKPEDTAVYYCAADRVRSVRYGYWGKGTQVTVSS | low polyreactivity
QVQLVESGGGLVQAGGSLRLSCAASGSIFADYVMGWYRQAPGKERELVAAITRRGRTYYSDSVKGRFTISRDNAMNTVYIQMNILKPEDSAVYYCDKVASGKIDSWGQGTQVTVSS | low polyreactivity
QVQLVESGGGLVQAGGSLRLSCAASGSIFDRYDMGWYRQAPGKERELVAAISTGGSTNYADSVKGRFTISRDNAKNTVYLHMNSLKPEDTAVYYCADRYLYRMYYWGQCTQVTVSS | low polyreactivity
QVQLVESGGGLVQAGGSLRLSCAASGRIFPYYAMGWYRQAPGKEREFVAAITSSGGTTYYADSVKGRFTISRDNAKNTVYLQMNSLKPEDTAVYYCFAVRLYALYAGRPYDYWGQGTQVTVSS | low polyreactivity
HVQLVESGGGLVQAGGSLRLSCAASGPTFVTNAKGWYRQAPGKERELVAAISRSGGHTYYADSVKGRFTISRDIAKNTVYLQMNSLKPEDTAVYYCAKNRGPRTLYDYWGQGTQVTVSS | high polyreactivity
QVQLVESGGGLVQAGGSLRISCAASGFTFYRYAMGWYRQAPGKERELVAAISSDGTTYNADSVKGRFTISRDNAKNTVYLQINSLKPEDNAVYYCAKRGYYRSRRYDYWGQGTQVNVSS | high polyreactivity
QVQLVESGGGLVQAGGSLRLSCAASGFIFSSNAMGWYRPAPGKERELVARITSSDGSTYYADSVKGRFTISRDNAKNTVYLQMNSLKPEDTAVYYCAKGRDATHYEYYLYSMDYWGQGTQVTVSS | low polyreactivity
QVQLVESGGGLVQAGGSLRLSCAASGSTFVGNAMGWYRQAPGKERELVAAITGGGGSTYYADSVKGRFTISRDNAKNTVYLQMNSLKPEDTAVYYCARDRTDYYVWYVRYYYWGQGTQVTVSS | low polyreactivity
QLQLVESGGGLVQAGGSLRLSCAASGSTFPTNAMGWYRQAPGKERELVARISWDGGRTNYADSVKGRFTISRDNAKNTVYLQMNSLKPEDTAVYYCAAEKQHFGPYGYWGQGTQVTVSS | low polyreactivity
QVQLVESGGGLVQAGGSLRISCAASGFTFPSYAMGWYRQAAGKERELVAAINRRGGSTNYADSVKGRFTISRDNAKNTDYLQMNSLKPEDTAVYYCAKQPRLGKYEYYYWGQGTQVTVSS | high polyreactivity
QVQLQESGGGLVQAGGSLRLSSAASGTISPLPAMGWYRHAPGKEREFVAGIDTGAIHNYADSVKGRFTIRRDNAKNTVYLQMNSLKPEDTAVYYCAVFPAAYEYYERYYTYWGQGTQVTVSS | low polyreactivity
QVQLVEAGGGLVQAGGSLRLSCAASGQIFRKNARGWYSQAPGKERELVAAINSGGSTKYADSVKGRFTISRDNAKNTVYLQMNSLKPEDTAVDYCAARGRYGVPPGRAHDNWRQGTQVTVSS | high polyreactivity
QVQLVESGGGLVQAGGSLSLSCAASGLTFPKYAMGWYRQAPGKERELVDRISYSGASTYYADSVKGRFTISRDNAKNTVYLQMNSLKPEDTAVYYCAARIYRVYYVDFAPYYYWGQGTQVTVSS | high polyreactivity
QVQLVESGGGLVQAGGSLRLSCAASGIIFGTYAMGWYRQAPGKERELVASISSRGGSTYYADTVKGRFTISRDNAKNTVYLQMNSLKPEDTAVYYCAARNAYPGNSMDSWGLGTQVTVSS | high polyreactivity
QVQLVESGGGLVQAGGSLRLSCAASGFIFAYYAMGWYRQAPGKETELVAAITWSGGRTYYADSVKGRFTISRDNSKNTVYLQMNSLKPEDTAVYYCNAVRPSVDYGYWGQGTQVTVSS | high polyreactivity
QVQLVESGGGLVQAGGSLRLSCAASGSTLDYNDMGWYRQAPGKEREFVAAIRSNDGSTYYADSVKGRFTISRDNAKKTVYLQMNSLKPEDTAVYYCNKDVWDGYDWPEFDYLGQGTQVTVSS | low polyreactivity
QVQLVESGGGLVQAGGSLRLSCAPSGSTFPRNAMGWYRQAPGKERELVAAISYSGGRTYYADSVKGRFTISRDNAKNTVSLQMNSLKPEDTAVYYCAAQPWFTYYYWGQGTQVTVSS | high polyreactivity
QVQLVESGGGLVQAGGSLRLSCAASGRIFYRYAMGWYRQAPGKERELVAAITGSGGRTYADSVKGRFTISRDNAKNTVYLQMNSLKPEDTAVYYCNDRSFCPTESRYDYWGQGTQVTVSS | high polyreactivity
QVQLVESCGGLVQAGGSLRLSCAASGGTFGPNAMGWYRQAPGKERELVARISTSGGSTTYYADSVKGRFTISRDNAKNTFYLHMNSLKPEDTAVYYCAADYKPYYRRRYDYWGQGTQVTVSS | low polyreactivity
QVQLVESGGGLVQAGGSLRLSCAASGSIFFYYTMGWYRQAPGKEREMVAAISVGGSTYYADSVKGRFTISSDNAKNTVYLQMKSLKPEDTAVYYCNAVPAKGYVTVVRYYYWGLGTQVTVSS | low polyreactivity
QVQLVESGGGLVQAGGSLRLSCAASGSTFASNAMGWYRQAPGKARELVAGISSSDGGTYYADSVKGRFTISRDIAKYNVYLEMKSLKPEDTAVYSCNAPPGTFQWQGHSDYWGQGTEVTVSS | low polyreactivity
QVQLVESGGGLVQAGGSLRLSCAASGITFYSYAMGWYRQAPGKERELVAAINRSGGSTYYADSVKGRFTISRDNAKNTVYLQMNSLKPEDSAVYYCAAEEGRVFSGGYDYWGQGTQVTVSS | high polyreactivity

Sequence | polyreactivity (PSR sort gate)
QVQLVESGGGLVQAGGSLRLSCAASGSIFVYYAMGWYRQAPGKERELVARIRIGGSTNYADSVKGRFTISRDNAKNTVYLQMNSLKPEDTAVYYCIKYSVLSRQRYSHPVNYDSWGQGTQVTVSS | high polyreactivity
QVQLVESGGGLVQAGGSLRLSCAASGRTFYKNTMGWYRQAPGKERELVAGISQRGGRTYYADSVKGRFTISRDNAKNTVYLQMNSLKPEDTAVYYCAADRYSYGSNGYPRFEYYYWGQGTQVTVSS | high polyreactivity
QVQLVESGGGLVQAGGSLRLSCAASGSIFDEYAMGWYRQAPGKERELVAVISTSGSTYYADSVKGRFTISRDNAKNPVYLQMNCLKPEDTGVYSSNAAIYTSSYRSYDYWGQGTQVTVTS | low polyreactivity
QVQLVESGGGLVQAGGSLRLSCAASGSIFRYYVMGWYRQAPGKERELVAAISGGSTYYADSVKGRFTISRDNAKNTVYLQMNSLKPEDTAVYYCAAEQWSTGYYYWGQGTQVTVSS | high polyreactivity
QVQLVESGGGLVQAGGSLRLSCASSGRNFGYDGMGWYRQAPGKERELVAAITYRGGSTYYADSVKGRFTISRDNAKNTVYLQMNSLKPEDTAVYYCAADGYSHYRYLYDYWGQGTQVTVSS | low polyreactivity
QVQLVESGGGLVQAGGSLRLSCAASGRISGVNAMGWYRQAPGKERELVATISGSGGRTYYADSVKGRFTISRDNAKNTVYLQMNSLKPEDTAVYYCAAGPPRADYDYWGQGTQVTVSS | low polyreactivity
QVQLVESGGGLVQAGGSLRLSCAASGSIFGRNAMGWYRQAPGKERELVAAITWRTGSTFYADSVKGRFTISRDNAKNTVYLQMNCLKPEDTAVYYCNAAGPAYSYYHWLWGDYNSWRQGTQVTVSS | low polyreactivity
QVQLVESGGGLVQAGGSLRLSCAASGRTFGYNAMGWYRQAAGKERELVAAISSSGGSTYYADSVKGRFTISRDNAKNTVYLQMNSLKPEDTAVYYCATQGYSWAHGSDYWGQGTQVTVSS | low polyreactivity
QVQLVESGGGLVQAGGSLRLSCAAYGSTFRTNAMGWYRQAPGKERELVAAISQRGGSTYYADSVKGRFTISRDNAKNTVYLQMNSLKPEDTGVYYCAARRYAYQSGGTLLTDDYWGQGTQVTVSS | high polyreactivity
QVQLVESGGGLVQAGGSLRLSCAASGSIFDTNAMRWYRQAPGKERELVAAISFSGVRTYYEDSVKGRFTISRYNAKNTVSLQMYSLKPEDTAVYYCAAESGKYLESRYRYYTRYYYWGQGTEVTVSS | high polyreactivity
QVQLVESGGGLVQAGGSLRLSCAASGFTFGIYAMGWYRQAPGKERELVAAITKGGGSTYYADSVKGRFTISRDNAKNTVYLQMNSLKPEDTAVYYCAARRVSERRVGYWGQGTQVTVSS | high polyreactivity
QVHLVESGGGLVQAGGSLRLSCAASGRTFDRNAMGWYIQAPGKERELVAAISRNGGSTYYADSVKGRFTISRDNAKNTVYLQMNSLKPEDTAVYYCAAPRSVYDVARGDYWGQGTQVTVSS | high polyreactivity
QVHLVESGRGLVQAGGSLRLSCAASGSTFGWNTMGWYRQAPAKERELVAAISWSGDRTYYADSVKGRFTISRDNAKNTVYLQMNRLKPEDTAVYYCARQRYYGYYYWGQGTQVTVSS | high polyreactivity
QVQLVESGGGLVQAGGSLRLSCAASGGIFPYYVMGWYRQAPGKERELVAAINSGGTTYYADSVKGRFTISRDNAKNTVYLQMNSLKPEDTAVYYCAAYYAGFGYNYWGQGTQVTVSS | low polyreactivity
QVQLVESGGGLVQAGGSLRLSCAASGRIFTINAMGWYRQAPGKERELVASIRSTGGSTYYADSVKGRFTISRDNAKNTVYLQMNSLKPEDTAVYYCAADGGVAWGYGYWGQGTQVTVSS | low polyreactivity
QVQLVESGGGLVQAGGSLRLSCAASGSTFYVYAMGWYRQAPGKERELVAAITSGDDTNYADSVKGRFTISRDNAKNTVYLQMNSLKPEDPAVYYCAAEAVGYGSPRGYYWYDYWGQGTQVTVSS | high polyreactivity
QVQLVESGGGLVQAGGSLRLSRAASGGSLRLYAMRWYRQAHGKERELVSAINDRSGSTYYADSVKGRFTISRDNAKNTVYLKLNRLKPEDTAVYYCYAYGTPPGSDGQYDYWGQGTQVTVSS | high polyreactivity
QVQLVESGGGLVQAGRSLRLSCAASGFIFRWYAMGWYRQAPGKERELVAGLTSGDNTYYADSVKGRFTISRDNAKNTVYLQMNSLKPEDTAVSYCAADGWLWSFTGDGWWFDYWGQGTQVTVSS | low polyreactivity
QDQLVESGGGLVQAGGSLRLSCAASGSIFGGYGMGWYRQAPGKERELVAAITSGSSTYYADSVKGRFTISRDNAKNTVYLQMNSLKPEDTAVYYCAARPYPHSAYQGDYWGRGTQVTVSS | low polyreactivity
QVQLVESGGGLVQAGCSLRLSCAASGRTFSKYTMGWYRQAPGKERELVAAISGSGGSTYYADSVKGRFTISRDNAKNTVYLQMNSLKPEDTAVYYCAAEDEYNWYDDYFYTFDYWGQGTQVTVSS | low polyreactivity
QVQLVESGGGLVQAGGSLRLSSAASGSIFGYNPMGWYRPAPGKERELVAAIRISTDNTYYADSVKGRFTISRDNAKNTVYLQMNSLKPEDTAVDYCAADEYWWGYYYWGQGTQVTVSS | high polyreactivity
